Laboratory results published in IntAct's records for PubMed 11027267.

B1: KRR1 small subunit processome component (Saccharomyces cerevisiae), P25586 (parent)
chain: MVSTHNRDKPWDTDDIDKWKIEEFKEEDNASGQPFAEESSFMTLFPKYRESYLKTIWNDVTRALDKHNIACVLDLVEGSMTVKTTRKTYDPAIILKARDLIKLLARSVPFPQAVKILQDDMACDVIKIGNFVTNKERFVKRRQRLVGPNGNTLKALELLTKCYILVQGNTVSAMGPFKGLKEVRRVVEDCMKNIHPIYHIKELMIKRELAKRPELANEDWSRFLPMFKKRNVARKKPKKIRNVEKKVYTPFPPAQLPRKVDLEIESGEYFLSKREKQMKKLNEQKEKQMEREIERQEERAKDFIAPEEEAYKPNQN
partner: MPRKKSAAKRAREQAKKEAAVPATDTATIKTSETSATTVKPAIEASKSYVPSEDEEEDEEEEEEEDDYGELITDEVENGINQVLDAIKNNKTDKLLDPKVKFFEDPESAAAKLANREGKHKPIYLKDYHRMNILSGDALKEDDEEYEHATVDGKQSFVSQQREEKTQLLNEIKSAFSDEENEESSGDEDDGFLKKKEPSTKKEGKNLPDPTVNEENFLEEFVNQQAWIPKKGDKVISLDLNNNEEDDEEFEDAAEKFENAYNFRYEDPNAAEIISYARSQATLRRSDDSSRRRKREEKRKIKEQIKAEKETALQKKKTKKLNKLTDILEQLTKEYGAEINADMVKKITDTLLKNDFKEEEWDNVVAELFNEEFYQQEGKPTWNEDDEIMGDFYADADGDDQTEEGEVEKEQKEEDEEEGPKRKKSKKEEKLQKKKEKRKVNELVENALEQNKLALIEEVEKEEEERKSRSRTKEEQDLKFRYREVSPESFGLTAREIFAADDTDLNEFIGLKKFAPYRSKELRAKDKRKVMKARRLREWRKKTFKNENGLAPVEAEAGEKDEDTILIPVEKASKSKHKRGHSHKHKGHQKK

Variants of: B1
Settings: with kri1_yeast KRI1, P42846

Variant | effect of a mutation on the interaction
K20E;K66N;C162R;D261A | decreasing interaction
F45L;L95S;R207G | decreasing interaction
